pKd: −log10 of the molar value.
Target: CFP-MtbDarG MD (mCerulean-fused macrodomain of Mycobacterium tuberculosis DNA ADP-ribosylglycohydrolase DarG) (M. tuberculosis) (UniProt O53605)
Test: FRET or BRET

Sequence of CFP-MtbDarG MD (mCerulean-fused macrodomain of Mycobacterium tuberculosis DNA ADP-ribosylglycohydrolase DarG) (M. tuberculosis) (O53605 1-155): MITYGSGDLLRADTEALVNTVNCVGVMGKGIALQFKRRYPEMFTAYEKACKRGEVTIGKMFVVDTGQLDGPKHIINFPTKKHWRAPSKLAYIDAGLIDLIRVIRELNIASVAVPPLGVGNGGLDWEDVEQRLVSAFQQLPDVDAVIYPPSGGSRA
Sequence of PARylated YFP-GAP (mCitrine fused to a C-terminal Gαi 10-mer peptide, poly-ADP-ribosylated) (P63096 whole entry, looked up, the tested form may be a part): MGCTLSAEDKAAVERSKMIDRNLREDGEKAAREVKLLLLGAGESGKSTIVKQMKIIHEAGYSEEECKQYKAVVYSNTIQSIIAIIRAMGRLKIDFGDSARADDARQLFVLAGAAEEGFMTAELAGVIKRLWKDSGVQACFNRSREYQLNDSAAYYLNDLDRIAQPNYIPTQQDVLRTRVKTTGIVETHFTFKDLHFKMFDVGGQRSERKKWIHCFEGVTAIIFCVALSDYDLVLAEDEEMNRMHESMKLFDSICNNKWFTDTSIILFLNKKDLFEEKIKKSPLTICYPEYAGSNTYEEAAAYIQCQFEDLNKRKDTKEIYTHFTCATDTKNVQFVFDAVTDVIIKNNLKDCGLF

## PARylated YFP-GAP (mCitrine fused to a C-terminal Gαi 10-mer peptide, poly-ADP-ribosylated) (from UniProt P63096 345-354)
  pKd: 6.50

Reference: doi:10.1101/2025.07.02.662713
